Results as given in article doi:10.1101/2025.08.14.670383.

Biological target: ADGRG1_h1h2: ADGRG1 receptor bearing the designed GAIN domain SS_h1h2, on HEK293T cells (human) (UniProt Q9Y653)
UniProt Q9Y653, sequence (Q9Y653 26-693 V174C/S218C): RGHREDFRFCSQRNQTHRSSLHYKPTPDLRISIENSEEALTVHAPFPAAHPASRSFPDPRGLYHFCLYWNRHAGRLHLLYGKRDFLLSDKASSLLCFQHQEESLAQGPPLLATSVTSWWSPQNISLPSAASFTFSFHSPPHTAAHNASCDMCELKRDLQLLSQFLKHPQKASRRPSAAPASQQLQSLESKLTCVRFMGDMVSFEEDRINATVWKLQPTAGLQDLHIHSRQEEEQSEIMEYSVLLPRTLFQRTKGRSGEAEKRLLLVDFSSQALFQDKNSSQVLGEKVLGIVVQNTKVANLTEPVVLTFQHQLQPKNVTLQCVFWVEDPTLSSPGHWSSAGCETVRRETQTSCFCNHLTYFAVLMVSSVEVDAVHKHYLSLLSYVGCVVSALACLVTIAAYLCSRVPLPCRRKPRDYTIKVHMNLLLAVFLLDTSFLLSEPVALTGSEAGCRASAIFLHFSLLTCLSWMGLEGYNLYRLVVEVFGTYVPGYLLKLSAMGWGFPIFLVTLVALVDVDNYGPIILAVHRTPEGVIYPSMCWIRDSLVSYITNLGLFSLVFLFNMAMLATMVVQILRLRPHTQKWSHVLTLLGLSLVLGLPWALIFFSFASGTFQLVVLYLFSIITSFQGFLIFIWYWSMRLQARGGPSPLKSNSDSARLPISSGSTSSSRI

Col3-induced increase in activity, SRE-luciferase assay in HEK293T cells: > 2 fold
Substance: native human collagen III (from UniProt P02461 154-1221) (ligand)
